Measurements taken from the MegaScale stability set (Tsuboyama et al. 2023).

B1: EEHEE_rd4_0647 (parent)
chain: MQVTWGNVTVTFSNPEEAKKYAEKVARKLGGQVELHNGQFRIK
B2: EHEE_rd3_0053 (parent)
chain: TYTFKVDNKDQAKKAAKWAKKLGLSFQIEKHGDTFKITVQ

Variants of: B1
Experiment: folding stability dG (cDNA display proteolysis); higher = more stable
Details: PBS, room temperature

| Variant | folding stability dG [kcal/mol] |
| --- | --- |
| K43C | 3.45 |
| K43N | 2.59 |
| K43Q | 2.59 |
| K43T | 3.14 |
| T9Y | 1.85 |
| T9I | 2.71 |
| T9R | 2.06 |
| L35W | 2.63 |
| L35I | 2.83 |
| L35G | 1.48 |
| L35C | 2.78 |
| L29T | 2.65 |
| L29V | 2.77 |
| L29K | 1.36 |
| L29W | 2.5 |
| L29R | 1.62 |
| N37I | 1.41 |
| N37P | 1.58 |
| N37H | 2.14 |
| P15K | 2.83 |
| P15M | 3.03 |
| P15I | 2.99 |
| V8H | 2.8 |
| V8Q | 2.35 |
| V8I | 2.96 |

| Variant | folding stability dG [kcal/mol] |
| --- | --- |
| V8T | 2.64 |
| Q2G | 2.12 |
| Q2E | 2.52 |
| Q2M | 2.71 |
| Q2T | 3.09 |
| G38Q | 1.67 |
| G38D | 1.91 |
| G38N | 2.46 |
| G38F | 1.73 |
| G38C | 2.88 |
| V3D | 0.045 |
| V3M | 1.05 |
| V3H | 0.343 |
| V3K | 0.404 |
| V3T | 0.641 |
| V3G | 0.57 |
| T4F | 2.24 |
| R41Y | 3.35 |
| R41M | 2.95 |
| R41N | 2.37 |
| R41S | 2.11 |
| R41H | 3.02 |
| R27C | 3.21 |
| R27N | 2.37 |
| R27F | 2.45 |

| Variant | folding stability dG [kcal/mol] |
| --- | --- |
| V33C | 1.95 |
| V33I | 2.62 |
| T11S | 2.73 |
| T11R | 2.62 |
| T11K | 2.49 |
| M1G | 1.95 |
| M1T | 3.28 |
| M1C | 3.6 |
| E16I | 2.81 |
| E16W | 2.75 |
| V25P | -0.34 |
| V25R | 1.33 |
| K19H | 2.34 |
| K19A | 2.53 |
| E17W | 2.53 |
| E17I | 2.66 |
| F12S | -0.107 |
| F12E | -0.423 |
| E34M | 2.22 |
| E34I | 2.83 |
| E34G | 1.41 |
| E34V | 2.81 |
| E34A | 1.94 |
| Q39W | 1.7 |
| Q39F | 2.23 |

| Variant | folding stability dG [kcal/mol] |
| --- | --- |
| Q39L | 2.1 |
| Q39T | 2.69 |
| Q39E | 2.72 |
| Q39I | 3.09 |
| K20Q | 2.72 |
| K20H | 2.57 |
| K20S | 2.64 |
| V10H | 2.15 |
| V10F | 2.53 |
| V10T | 1.74 |
| K28W | 3.23 |
| K28F | 2.97 |
| K28S | 2.51 |
| K28E | 2.72 |
| A26M | 1.2 |
| A26T | 0.93 |
| A26D | 0.03 |
| A26W | 1.17 |
| G30A | 1.88 |
| W5K | 0.547 |
| W5F | 2.53 |
| W5I | 2.61 |
| W5T | 1.19 |
| W5M | 1.83 |
| W5V | 2.64 |

| Variant | folding stability dG [kcal/mol] |
| --- | --- |
| W5P | 0.153 |
| I42H | 0.692 |
| I42V | 2.52 |
| I42F | 1.1 |
| I42K | 0.538 |
| I42D | 0.522 |
| I42T | 0.547 |
| G31L | 2.6 |
| K24G | 2.37 |
| K24A | 3.01 |
| K24Y | 3.25 |
| A22Y | 0.931 |
| A22V | 1.43 |
| A22C | 1.62 |
| A22F | 1.07 |
| Q32M | 2.78 |
| Q32K | 2.92 |
| Q32N | 2.4 |
| E23K | 2.29 |
| E23L | 2.7 |
| E23M | 2.68 |
| G6F | 2.55 |
| G6T | 1.3 |
| G6N | 2.38 |
| G6V | 1.39 |

| Variant | folding stability dG [kcal/mol] |
| --- | --- |
| G6E | 1.96 |
| G6K | 2.1 |
| H36W | 2.85 |
| H36Q | 2.54 |
| A18C | 1.92 |
| A18Y | 0.88 |
| A18D | -0.206 |
| N14E | 2.2 |
| N14A | 2.21 |
| N14Y | 1.91 |
| S13P | 2.58 |
| F40L | 2.85 |
| F40T | 0.626 |
| F40W | 3.25 |
| F40R | 0.666 |
| F40Y | 3.2 |
| F40N | 0.635 |
| N7F | 2.43 |
| N7L | 2.27 |
| N7R | 2.64 |
| N7T | 2.67 |

Variants of: B2
Experiment: as above
Details: PBS, room temperature

| Variant | folding stability dG [kcal/mol] |
| --- | --- |
| I37F | 2.15 |
| I37M | 1.51 |
| I37A | 0.507 |
| I37Y | 0.365 |
| I37V | 2.35 |
| I37W | 0.115 |
| I37L | 1.47 |
| G32P | 0.72 |
| G32M | 1.7 |
| G32T | 0.996 |
| G32D | 1.85 |
| G32V | 1.19 |
| G32S | 1.31 |
| G32C | 1.78 |
| G32F | 1.65 |
| G32Q | 1.76 |
| G32N | 1.96 |
| G32K | 1.77 |
| G32Y | 1.59 |
| G32A | 1.64 |
| G32W | 1.31 |
| G32E | 2.03 |
| G32R | 1.58 |
| G32I | 1.21 |

| Variant | folding stability dG [kcal/mol] |
| --- | --- |
| G32L | 1.7 |
| G32H | 1.61 |
| Q40F | 3.05 |
| Q40Y | 3 |
| Q40C | 2.75 |
| Q40G | 2.55 |
| Q40M | 2.6 |
| Q40L | 2.41 |
| Q40T | 2.62 |
| Q40D | 1.98 |
| Q40E | 2.19 |
| Q40V | 2.41 |
| Q40H | 2.56 |
| Q40N | 2.4 |
| Q40P | 1.14 |
| Q40R | 2.59 |
| Q40I | 2.49 |
| Q40W | 3.28 |
| Q40A | 2.46 |
| Q40K | 2.45 |
| Q40S | 2.77 |
| F35G | -0.794 |
| F35C | 1.93 |
| F35Y | 2.75 |

| Variant | folding stability dG [kcal/mol] |
| --- | --- |
| F35S | -0.159 |
| F35R | 0.294 |
| F35Q | 0.075 |
| F35V | 1.16 |
| F35K | -0.99 |
| F35I | 1.85 |
| F35L | 1.49 |
| F35M | 1.31 |
| F35A | 0.298 |
| F35W | 2.75 |
| F35H | 0.715 |
| F35N | -0.413 |
| F35T | 0.632 |
| K36I | 3.28 |
| K36T | 2.88 |
| K36H | 2.66 |
| K36W | 3.32 |
| K36Q | 2.66 |
| K36R | 2.53 |
| K36S | 2.52 |
| K36D | 1.65 |
| K36F | 3.18 |
| K36Y | 3.17 |
| K36E | 2.45 |

| Variant | folding stability dG [kcal/mol] |
| --- | --- |
| K36V | 3.14 |
| K36L | 3.18 |
| K36A | 2.28 |
| K36M | 2.94 |
| K36G | 1 |
| K36N | 2.16 |
| V39G | -0.471 |
| V39M | 1.86 |
| V39I | 2.82 |
| V39T | 0.975 |
| V39P | -0.963 |
| V39N | -0.981 |
| V39L | 2.23 |
| V39Q | -0.762 |
| V39W | 1.56 |
| V39H | -0.097 |
| V39R | -0.567 |
| V39Y | 1.68 |
| V39S | -0.061 |
| V39D | -0.839 |
| V39A | 0.718 |
| V39F | 2.06 |
| V39C | 1.68 |
| E29Y | 1.95 |

| Variant | folding stability dG [kcal/mol] |
| --- | --- |
| E29V | 2.43 |
| E29W | 2 |
| K30S | 2.03 |
| K30G | 1.57 |
| K30A | 2.21 |
| K30Q | 2.48 |
| K30R | 2.5 |
| K30I | 2.15 |
| K30M | 2.16 |
| K30H | 1.91 |
| K30W | 1.64 |
| K30L | 1.98 |
| K30P | 2.09 |
| K30V | 2.21 |
| K30D | 1.84 |
| K30F | 1.91 |
| K30E | 2.04 |
| K30N | 1.88 |
| K30T | 2.04 |
| K30Y | 1.92 |
| T34F | 2.79 |
| T34R | 2.41 |
| T34D | 1.89 |
| T34P | -0.409 |

| Variant | folding stability dG [kcal/mol] |
| --- | --- |
| T34H | 2.92 |
| T34S | 2.61 |
| T34A | 2.64 |
| T34W | 2.72 |
| T34L | 2.36 |
| T34G | 3.12 |
| T34Y | 2.92 |
| T34E | 2.4 |
| T34Q | 2.81 |
| T34I | 2.68 |
| T34N | 2.28 |
| T34K | 2.65 |
| T34V | 2.71 |
| T34M | 2.59 |
| D33I | 1.91 |
| D33P | 2.12 |
| D33L | 2.14 |
| D33K | 2.35 |
| D33E | 2.38 |
| D33T | 2.37 |
| D33N | 2.45 |
| D33G | 2.23 |
| D33H | 2.1 |
| D33A | 2.18 |

| Variant | folding stability dG [kcal/mol] |
| --- | --- |
| D33W | 1.76 |
| D33F | 2 |
| D33V | 1.95 |
| D33S | 2.33 |
| D33Y | 1.8 |
| D33M | 2.1 |
| D33Q | 2.16 |
| D33R | 2.11 |
| T38V | 2.01 |
| T38M | 1.83 |
| T38L | 1.78 |
| T38E | 1.1 |
| T38R | 1.72 |
| T38Y | 1.77 |
| T38S | 1.81 |
| T38A | 1.3 |
| T38D | 0.562 |
| T38K | 1.65 |
| T38N | 1.09 |
| T38Q | 1.57 |
| T38W | 1.76 |
| T38I | 2.34 |
| T38G | 0.192 |
| T38F | 1.71 |

| Variant | folding stability dG [kcal/mol] |
| --- | --- |
| T38H | 1.8 |
| H31V | 2.87 |
| H31T | 2.66 |
| H31A | 2.41 |
| H31F | 2.55 |
| H31D | 2.97 |
| H31R | 2.08 |
| H31N | 2.42 |
| H31Q | 2.65 |
| H31I | 2.89 |
| H31Y | 2.45 |
| H31E | 2.93 |
| H31M | 2.68 |
| H31K | 2.14 |
| H31L | 2.59 |
| H31P | 0.239 |
| H31C | 3.09 |
| H31S | 2.45 |
| H31G | 1.34 |
| H31W | 2.41 |
